Test results from US11385226.

Biological target: recombinant Human IL-8 (BD Pharmingen cat #554609) (human) (UniProt P10145)
Assay: sandwich immunoassay on Capture Antibody 1 magnetic beads; potentiometric read-out of bound glucose oxidase conjugate after adding glucose; no potential without IL-8

Capture Antibody 2, an anti-Mouse α-Human IL-8 Monoclonal Antibody (for ICC, BD Pharmingen cat #550419), conjugated to Glucose Oxidase from Aspergillus niger, sequence (P13006 23-605): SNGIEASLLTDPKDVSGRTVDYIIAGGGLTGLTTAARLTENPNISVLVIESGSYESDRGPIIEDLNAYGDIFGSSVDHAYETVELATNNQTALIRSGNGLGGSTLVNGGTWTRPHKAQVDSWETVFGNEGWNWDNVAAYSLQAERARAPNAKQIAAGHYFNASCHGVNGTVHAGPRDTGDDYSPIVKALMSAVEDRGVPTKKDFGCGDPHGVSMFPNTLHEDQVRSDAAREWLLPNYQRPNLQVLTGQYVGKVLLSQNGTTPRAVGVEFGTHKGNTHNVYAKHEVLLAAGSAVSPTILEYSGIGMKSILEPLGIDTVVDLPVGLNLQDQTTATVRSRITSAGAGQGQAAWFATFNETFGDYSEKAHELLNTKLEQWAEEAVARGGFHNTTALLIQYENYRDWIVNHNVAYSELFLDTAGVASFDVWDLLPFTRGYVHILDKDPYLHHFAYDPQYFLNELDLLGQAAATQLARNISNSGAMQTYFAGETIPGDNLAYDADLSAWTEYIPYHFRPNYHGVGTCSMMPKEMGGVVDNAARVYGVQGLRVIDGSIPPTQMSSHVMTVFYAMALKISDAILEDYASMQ
recombinant Human IL-8 (BD Pharmingen cat #554609) (human), sequence (P10145 28-99 limits assumed): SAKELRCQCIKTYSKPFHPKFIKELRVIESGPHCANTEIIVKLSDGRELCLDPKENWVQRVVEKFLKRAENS

potential: 1 to 55 mV
Substance: Capture Antibody 2, an anti-Mouse α-Human IL-8 Monoclonal Antibody (for ICC, BD Pharmingen cat #550419), conjugated to Glucose Oxidase from Aspergillus niger (from UniProt P13006 23-605)
